Results from the supplement of paper PMC9170038.

How the values were obtained:
MS2 coat protein [1] = experiment: apparent KD of MS2 coat protein, switch OFF state (with FMN for OFF switches, without FMN for ON switches); designed switch direction (-1 OFF switch, 1 ON switch): -1; higher = weaker reporter binding; settings: FMN input: 0 or 200 uM; Eterna round: R93 (includes R88 designs)
Procedure, shortened: (§1)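 Titrations with SNAP-549-labelled MS2 coat protein ran in twofold steps from 0.7 or 1.5 nM to 3 µM, each step taking 0.8–1.5 h at the start and 10–20 min toward the end. The targets were designed RNA switches transcribed on-chip from Illumina sequencing clusters, held in 100 mM Tris-HCl pH 7.5, 80 mM KCl, 4 mM MgCl2, without or with constant ligand. Apparent KD was taken per design as the median of normalised cluster binding-curve fits.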

MS2 coat protein [2] = experiment: apparent KD of MS2 coat protein, switch ON state; designed switch direction (-1 OFF switch, 1 ON switch): -1; higher = weaker reporter binding; settings: FMN input: 0 or 200 uM; Eterna round: R93 (includes R88 designs)
Procedure, shortened: as §1

Row | Sequence | apparent KD of MS2 coat protein (MS2 coat protein [1]) | apparent KD of MS2 coat protein (MS2 coat protein [2])
1 | AAGAAGGCAGGAUAUACAUGAGGAUCACCCAUGUAAAAGAAAGAGGGAAAAGAGAAAAGUAGAAGGGCCAAGAA [Setepenre-meryamun Alexander III] | 75 nM | 27.8 nM
2 | AAGAAGGGAGGAUAUACAAAAUAAAAGAAAAGAAAGAAAGAACAUGAGGAUCACCCAUGUAGAAGGCCUAAGAA [Merneferre Ay I] | 8.74 nM | 23.8 nM
3 | AAGAAGGUAGGAUAUACAUGAGGAUCACCCAUGUAAAAGAAAGAAAGGGAAAAGAAAAGUAGAAGGACCAAGAA [Usermaatre Amenemope] | 27.4 nM | 23.5 nM
4 | AAGAAGGUAGGAUAUACUAAAGAAAUAAAAAGAAAGAAAGAACAUGAGGAUCACCCAUGUAGAAGGGCCAAGAA [Merkare] | 35.2 nM | 51 nM
5 | AAGAAGUAAGGAUAUCGAAGACUGUCGAAAAGACAGUCGAACGAGAAGGUACAUGAGGAUCACCCAUGUGAGAA [Opal 24] | 41 nM | 25.5 nM
6 | AAGAAGUAAGGAUAUGCUGCUCGUCACAAAAGUGAUGAGUAGCAGAAGGUACAUGAGGAUCACCCAUGUAAAUA [Opal 32] | 17.2 nM | 25.3 nM
7 | AAGAAGUCAGGAUAUACAAAAUAAAAGAAAAGAAAGAAAGAACAUGAGGAUCACCCAUGUAGAAGGGACAAGAA [Nerikare] | 37.4 nM | 57.8 nM
8 | AAGAAGUCAGGAUAUACAUGAGGAUCACCCAUGUAAAAGAAAGAAAAGGGAAAGAAAAGUAGAAGGGACAAGAA [Menkheperre Thutmose III] | 208 nM | 22.5 nM
9 | AAGAAGUCAGGAUAUCGAAGACAGACGAAAAGUCUGUCAAACGAGAAGGGACAUGAGGAUCACCCAUGUAAGAA [What have we learned so far? 64% 1] | 60.4 nM | 44.9 nM
10 | AAGAAGUCAGGAUAUGCCAAAGAUCACGAAAGUGACAAAGGGCAGAAGGGACAUGAGGAUCACCCAUGUAAAGA [Opal 3] | 62.4 nM | 54.7 nM
11 | AAGAAGUCAGGAUAUGCCAAAGAUCACGAAAGUGACUAAGGGCAGAAGGGACAUGAGGAUCACCCAUGUAAAGA [Opal 4] | 52.8 nM | 42.9 nM
12 | AAGAAGUCAGGAUAUGCCAGAGAUCAAGAAAGUGACGAAUAGCAGAAGGGACAUGAGGAUCACCCAUGUAAAGA [Opal 9] | 35.9 nM | 43.5 nM
13 | AAGAAGUCAGGAUAUGCUAAAGAAAUAAAAAUAAAUAAAGAACAUGAGGAUCACCCAUGUAGAAGGGACAAGAA [Sewadjkare Hori] | 33.3 nM | 72.1 nM
14 | AAGAAGUCAGGAUAUGCUGCUCGUCACAAAAGUGAUGAGUAGCAGAAGGGACAUGAGGAUCACCCAUGUAAACA [Opal 34] | 47.2 nM | 37.6 nM
15 | AAGAAGUCAGGAUAUGGUGCUCGUCACUUGCGUGAUGAGUACCAGAAGGGACAUGAGGAUCACCCAUGUAAAGA [Opal 21] | 60 nM | 47.1 nM
16 | AAGAAGUGAGGAUAUACAUGAGGAUCACCCAUGUAAAAGAAAGAAGGGAAAGAGAAAAGUAGAAGGCACAAGAA [Usermaatre-setepenamun Osorkon III] | 31.3 nM | 28.5 nM
17 | AAGAAGUGAGGAUAUCGAAAAGAAAAGAAAAGAAAAGAAAACGAGAAGGCACAUGAGGAUCACCCAUGUAAGAA [Setutre Darius I the Great] | 41 nM | 28.1 nM
18 | AAGAAGUGAGGAUAUCGAAGACAAAAAAAAAAAAAGUCGAACGAGAAGGCACAUGAGGAUCACCCAUGUAAGAA [shorter stack] | 40.3 nM | 37.7 nM
19 | AAGAAGUGAGGAUAUCGAAGACAGACGAAAAGUCUGUCAAACGAGAAGGCACAUGAGGAUCACCCAUGUGGAAG [Mat - Exaclusion 4 - Eli mod - D79] | 36.8 nM | 30.6 nM
20 | AAGAAGUGAGGAUAUCGAAGACUGUCGAAAAGACAGUCGAACGAGAAGGCACAUGAGGAUCACCCAUGUGAGGA [Marsurpial 65% 2] | 50.1 nM | 26.2 nM
21 | AAGAAGUGAGGAUAUGCUGCUCGUCACUUGCGUGAUGAGUAGCAGAAGGCACAUGAGGAUCACCCAUGUGGGAA [Modifying Chris (69%) Late G segment, early G segment 3] | 110 nM | 89.1 nM
22 | AAGAAGUGAGGAUAUGCUUGUCGUCACAAAAGUGAUGACGAGCAGAAGGCACAUGAGGAUCACCCAUGUAAAGA [Opal 27] | 49.9 nM | 37.1 nM
